According to patent EP4800035A1 (National Cancer Center, dated 2025):

T1: human interleukin-7 receptor (IL-7R) (human, UniProt P16871 21-459)
T1 construct: whole, on cells; Endogenous receptor on NALM6 and REH cells in flow cytometry; also called IL-7Ralpha; IL-7 Ralpha
T1 sequence (looked up): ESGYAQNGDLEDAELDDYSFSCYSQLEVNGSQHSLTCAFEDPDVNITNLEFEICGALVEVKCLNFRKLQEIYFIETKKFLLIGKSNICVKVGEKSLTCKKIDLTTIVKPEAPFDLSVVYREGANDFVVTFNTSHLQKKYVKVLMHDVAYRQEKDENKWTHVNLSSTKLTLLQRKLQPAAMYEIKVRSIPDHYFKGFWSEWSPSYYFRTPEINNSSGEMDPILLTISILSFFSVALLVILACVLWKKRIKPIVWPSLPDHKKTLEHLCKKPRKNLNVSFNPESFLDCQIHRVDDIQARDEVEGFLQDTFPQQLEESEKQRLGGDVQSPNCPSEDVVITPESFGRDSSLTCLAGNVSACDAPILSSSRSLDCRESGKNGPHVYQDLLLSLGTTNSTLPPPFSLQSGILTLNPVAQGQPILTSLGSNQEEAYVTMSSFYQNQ


Molecular target: T1, human interleukin-7 receptor (IL-7R)
Assay: flow cytometry on NALM6 and REH cells (FIG. 2)

binding result	Binder
binds	clone 24 chimeric antibody in the IgG1 format (antibody, also called anti-human IL-7R antibody clone 24 (IgG1 format)) heavy: not shown light: QIVLTQSPAIMSSFPGEKVTMTCSASSSVNYIHWYQQKSGTSPKRLIYDTSKLASGVPPRFSGSGSGTSYSLTISSMEAEDAATYYCQQWSRNPLTFGAGTKLELRRTVAAPSVFIFPPSDEQLKSGTASVVCLLNNFYPREAKVQWKVDNALQSGNSQESVTEQDSKDSTYSLSSTLTLSKADYEKHKVYACEVTHQGLSSPVTKSFNRGEC
binds	clone 24 chimeric antibody in the IgG4 format (antibody, also called anti-human IL-7R antibody clone 24 (IgG4 format)) heavy: not shown light: QIVLTQSPAIMSSFPGEKVTMTCSASSSVNYIHWYQQKSGTSPKRLIYDTSKLASGVPPRFSGSGSGTSYSLTISSMEAEDAATYYCQQWSRNPLTFGAGTKLELRRTVAAPSVFIFPPSDEQLKSGTASVVCLLNNFYPREAKVQWKVDNALQSGNSQESVTEQDSKDSTYSLSSTLTLSKADYEKHKVYACEVTHQGLSSPVTKSFNRGEC
binds	clone 2D5 chimeric antibody in the IgG1 format (antibody, also called anti-human IL-7R antibody clone 2D5 (IgG1 format)) heavy: not shown light: DIVMTQSHKFMSTSVGDRVSITCKASQDVGIVVAWYQQKPGQSPKLLIYWASTRHTGVPDRFTGSGSGTDFTLTISNVQSEDLADYFCQQYSSYPLTFGAGTKLELRRTVAAPSVFIFPPSDEQLKSGTASVVCLLNNFYPREAKVQWKVDNALQSGNSQESVTEQDSKDSTYSLSSTLTLSKADYEKHKVYACEVTHQGLSSPVTKSFNRGEC
binds	clone 2D5 chimeric antibody in the IgG4 format (antibody, also called anti-human IL-7R antibody clone 2D5 (IgG4 format)) heavy: not shown light: DIVMTQSHKFMSTSVGDRVSITCKASQDVGIVVAWYQQKPGQSPKLLIYWASTRHTGVPDRFTGSGSGTDFTLTISNVQSEDLADYFCQQYSSYPLTFGAGTKLELRRTVAAPSVFIFPPSDEQLKSGTASVVCLLNNFYPREAKVQWKVDNALQSGNSQESVTEQDSKDSTYSLSSTLTLSKADYEKHKVYACEVTHQGLSSPVTKSFNRGEC
binds	clone 577 chimeric antibody in the IgG4 format (antibody) heavy: not shown light: ETTVTQSPASLSMAMGEKVTIRCMTSTDINDDMNWYQQKPGEPPKLLISEGNTLRPGVPSRFSSSGYSTDFFFTIEYMLSEDVADYFCLQTDNLPLTFGAGTKLELRRTVAAPSVFIFPPSDEQLKSGTASVVCLLNNFYPREAKVQWKVDNALQSGNSQESVTEQDSKDSTYSLSSTLTLSKADYEKHKVYACEVTHQGLSSPVTKSFNRGEC

Molecular target: T1, human interleukin-7 receptor (IL-7R)
Assay: flow cytometry on NALM6 and REH cells (FIG. 5, human chimeric clone)

binding result	Binder
binds	clone 577 chimeric antibody in the IgG1 format (antibody) heavy: not shown light: ETTVTQSPASLSMAMGEKVTIRCMTSTDINDDMNWYQQKPGEPPKLLISEGNTLRPGVPSRFSSSGYSTDFFFTIEYMLSEDVADYFCLQTDNLPLTFGAGTKLELRRTVAAPSVFIFPPSDEQLKSGTASVVCLLNNFYPREAKVQWKVDNALQSGNSQESVTEQDSKDSTYSLSSTLTLSKADYEKHKVYACEVTHQGLSSPVTKSFNRGEC
